Assays:
[1] = biological target: T1, mouse TEM8 on 293 cells (293/mTEM8) (mouse, UniProt Q9CZ52 31-562); experiment: flow cytometry on 293/mTEM8 cells (FIG. 8C)
T1 construct: whole, on cells

[2] = biological target: T2, hTEM8(ED)-Fc fusion protein (human; mouse, UniProt Q9H6X2 33-321); experiment: ELISA on biotinylated human TEM8-Fc captured on neutravidin
T2 construct: also called TEM8-Fc; human TEM8-Fc
T2 sequence: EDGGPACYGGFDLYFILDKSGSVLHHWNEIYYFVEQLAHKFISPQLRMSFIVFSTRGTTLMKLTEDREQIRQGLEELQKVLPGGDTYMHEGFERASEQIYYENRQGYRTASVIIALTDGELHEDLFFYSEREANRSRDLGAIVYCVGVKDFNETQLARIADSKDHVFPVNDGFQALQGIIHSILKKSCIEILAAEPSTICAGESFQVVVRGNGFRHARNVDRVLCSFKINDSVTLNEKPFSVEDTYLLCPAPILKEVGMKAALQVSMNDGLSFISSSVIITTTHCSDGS

[3] = biological target: T3, flag-tagged human TEM8 on 293 cells (293/Flag-hTEM8) (human, UniProt Q9H6X2 33-564); experiment: immunofluorescence and flow cytometry on 293/Flag-hTEM8 cells
T3 construct: also called 293/Flag-huTEM8; 293/hFlag-TEM8

[4] = biological target: T3, flag-tagged human TEM8 on 293 cells …; experiment: flow cytometry titration on 293/Flag-hTEM8 cells, FITC anti-mouse secondary (FIG. 9B)

B1: L1 Fab (Fab, V domains shown)
VH: QVQLVESGGGLVQPGGSLRLSCAASGFTFNSYAMSWVRQAPGKGLEWVSLISSGSSTYYADSVKGRFTISRDNSKNTLYLQMNSLRAEDTAVYYCARAGFKFDNWGQGTLVTVSS
VL: DIELTQPPSVSVAPGQTARISCSGDSIPNYSVSWYQQKPGQAPVLVIYADSNRPSGIPERFSGSNSGNTATLTISGTQAEDEADYYCQSYDNTSPDLVFGGGTKLTVLG
**Q.** Does B1 bind [1]?
**A.** binds

**Q.** Does B1 bind [2]?
**A.** binds

**Q.** Does B1 bind [3]?
**A.** binds

B2: L5-mIgG2a (antibody, V domains shown)
VH: QVQLVESGGGLVQPGGSLRLSCAASGFTFNSYGLSWVRQAPGKGLEWVSNISSNGSYTYYADSVKGRFTISRDNSKNTLYLQMNSLRAEDTAVYYCARAGYGLFDVWGQGTLVTVSS
VL: DIELTQPPSVSVAPGQTARISCSGDKLREYYVHWYQQKPGQAPVLVIYGDNKRPSGIPERFSGSNSGNTATLTISGTQAEDEADYYCSSWAGSRSGTVFGGGTKLTVL
notes: also called L5 full IgG
**Q.** Which EC50 [4] does the source give for B2 here?
**A.** 2.8 nM

From patent US20140134179A1 (Novartis, published 2014)
